Patent US20240301052A1 (LANOVA MEDICINES DEVELOPMENT, published 2024)

T1: human SLC34A2 (human, UniProt O95436 1-690)
T1 construct: whole, on cells; also called human solute carrier 34 A2; NaPi2b
T1 sequence (looked up): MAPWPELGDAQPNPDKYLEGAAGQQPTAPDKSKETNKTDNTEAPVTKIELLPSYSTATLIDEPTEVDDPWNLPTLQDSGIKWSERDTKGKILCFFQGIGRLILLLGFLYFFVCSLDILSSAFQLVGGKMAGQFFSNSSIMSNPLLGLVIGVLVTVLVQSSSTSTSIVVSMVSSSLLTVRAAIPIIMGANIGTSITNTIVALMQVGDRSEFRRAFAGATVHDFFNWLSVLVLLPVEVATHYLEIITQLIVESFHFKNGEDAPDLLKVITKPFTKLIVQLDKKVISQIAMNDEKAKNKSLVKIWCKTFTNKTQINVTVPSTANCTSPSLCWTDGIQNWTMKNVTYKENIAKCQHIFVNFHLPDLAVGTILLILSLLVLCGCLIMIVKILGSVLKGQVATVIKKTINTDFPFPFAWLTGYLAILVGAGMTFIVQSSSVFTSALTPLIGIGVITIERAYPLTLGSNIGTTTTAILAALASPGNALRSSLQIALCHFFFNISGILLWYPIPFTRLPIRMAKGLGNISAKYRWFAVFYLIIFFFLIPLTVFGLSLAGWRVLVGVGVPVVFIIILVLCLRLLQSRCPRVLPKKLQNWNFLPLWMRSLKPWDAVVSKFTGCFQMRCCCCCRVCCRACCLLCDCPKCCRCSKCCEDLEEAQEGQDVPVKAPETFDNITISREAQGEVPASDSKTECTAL


What was measured:
[1] = molecular target: T1, human SLC34A2; assay: FACS, OVCAR3 cells
Protocol: The binding of these humanized antibodies to OVCAR3 cells was evaluated as described above, and the results are shown in FIG. 12A-D and Tables 16A-D.

[2] = molecular target: T1, human SLC34A2; assay: FACS, HEK293/human SLC34A2 cells
Protocol: (§1) Briefly, OVCAR3 cells or HEK293 cells expressing human SLC34A2 were incubated with chimeric antibodies (from 200 nM, 4 folds dilution, 8 points). After incubation at 4° C. for 60 minutes, the cells were washed with FACS buffer twice, then stained with fluorescent conjugated secondary antibody at 4° C. for 30 minutes. After that the cells were washed twice and analyzed by flow cytometry.

[3] = molecular target: T1, human SLC34A2; assay: FACS, OVCAR3 cells; remark: listed apart in the source
Protocol: In this example, cell based binding of chimeric antibodies (hIgG1) prepared from the murine antibodies on human SLC34A2 expressing cells were assessed using flow cytometry.
as §1

[4] = molecular target: T1, human SLC34A2; assay: FACS, OVCAR3 cells; remark: listed apart in the source

Binder | EC50 [1] [nM] | Top (MFI) [1] [MFI] | EC50 [2] [nM] | Top (MFI) [2] [MFI] | EC50 [3] [nM] | Top (MFI) [3] [MFI] | other results
30H9B8F9.p1.z10 hIgG1 (antibody, V domains shown, humanized hIgG1) VH: QVQLVQSGAEVVKPGASVKVSCKTSGYTFTTNNMHWVRQAPGQGLEWIGAIYPGSGATAYNQKFKGRVTLTADKSTSTAYMELSSLRSEATAVYYCARGMYGHGAMDYWGQGTLVTVSS VL: DIQLTQSPSFLSASVGDRVTITCKASQDVGTAVAWYQQKPGKSPKLLIYWATTRHSGVPDRFSGSGSGTEFTFTISSLQPEDFATYFCQQYSSNPLTFGQGTKLEIK | 1.93 | 30700 |  |  |  |  | 
30H9B8F9.p1.z15 hIgG1 (antibody, V domains shown, humanized hIgG1) VH: QVQLVQSGAEVVKPGASVKMSCKTSGYTFTTNNMHWVKQAPGQGLEWIGAIYPGSGATAYNQKFKGRATLTADKSTSTAYMELSSLRSEATAVYYCARGMYGHGAMDYWGQGTSVTVSS VL: DIQMTQSPSFLSASVGDRVTITCKASQDVGTAVAWYQQKPGKSPKLLIYWATTRHSGVPDRFSGSGSGTEFIFTISSVQPEDFATYFCQQYSSNPLTFGAGTKLEIK | 1.05 | 26500 |  |  |  |  | 
30H9B8F9.p1.z16 hIgG1 (antibody, V domains shown, humanized hIgG1) VH: QVQLVQSGAEVVKPGASVKMSCKTSGYTFTTNNMHWVKQAPGQGLEWIGAIYPGSGATAYNQKFKGRATLTADKSTSTAYMELSSLRSEATAVYYCARGMYGHGAMDYWGQGTSVTVSS VL: DIVMTQSPSFLSASVGDRVTITCKASQDVGTAVAWYQQKPGKSPKLLIYWATTRHSGVPDRFTGSGSGTDFIFTISSVQPEDFATYFCQQYSSNPLTFGAGTKLEIK | 1.41 | 26500 |  |  |  |  | 
30H9B8F9.p1.z12 hIgG1 (antibody, V domains shown, humanized hIgG1) VH: QVQLVQSGAEVVKPGASVKVSCKTSGYTFTTNNMHWVRQAPGQGLEWIGAIYPGSGATAYNQKFKGRVTLTADKSTSTAYMELSSLRSEATAVYYCARGMYGHGAMDYWGQGTLVTVSS VL: DIVMTQSPSFLSASVGDRVTITCKASQDVGTAVAWYQQKPGKSPKLLIYWATTRHSGVPDRFTGSGSGTDFIFTISSVQPEDFATYFCQQYSSNPLTFGAGTKLEIK | 1.4 | 27600 |  |  |  |  | 
30H9B8F9.p1.z11 hIgG1 (antibody, V domains shown, humanized hIgG1) VH: QVQLVQSGAEVVKPGASVKVSCKTSGYTFTTNNMHWVRQAPGQGLEWIGAIYPGSGATAYNQKFKGRVTLTADKSTSTAYMELSSLRSEATAVYYCARGMYGHGAMDYWGQGTLVTVSS VL: DIQMTQSPSFLSASVGDRVTITCKASQDVGTAVAWYQQKPGKSPKLLIYWATTRHSGVPDRFSGSGSGTEFIFTISSVQPEDFATYFCQQYSSNPLTFGAGTKLEIK | 1.43 | 27000 |  |  |  |  | 
30H9B8F9.p1.z14 hIgG1 (antibody, V domains shown, humanized hIgG1) VH: QVQLVQSGAEVVKPGASVKMSCKTSGYTFTTNNMHWVKQAPGQGLEWIGAIYPGSGATAYNQKFKGRATLTADKSTSTAYMELSSLRSEATAVYYCARGMYGHGAMDYWGQGTSVTVSS VL: DIQLTQSPSFLSASVGDRVTITCKASQDVGTAVAWYQQKPGKSPKLLIYWATTRHSGVPDRFSGSGSGTEFTFTISSLQPEDFATYFCQQYSSNPLTFGQGTKLEIK | 1.31 | 27300 |  |  |  |  | 
xi20H2F1 hIgG1 (antibody, V domains shown, chimeric, hIgG1) VH: EVKLVESGGNLVKPGGSLKLSCAASGFTFSSYAMSWVRQTPEKRLEWVASISNGGTTYYPDSVKGRFTISRDVARNILYLQMTSLRSEDTAMYYCARTHYRDFVYWGQGTLVTVSA VL: EIVLTQAAFSNPVTLGTSASISCRSSKSLLHSNGITYLYWYLQKPGQSPQLLIYQMSNLASGVPDRFSCSGSGTDFTLRISRVEAEDVGVYYCAQNLEFPWTFGGGTKLEIK |  |  | 1.31 | 42000 | 2.73 | 26500 | 
xi7G10E11 hIgG1 (antibody, V domains shown, chimeric, hIgG1) VH: DVKLVESGGGLIKLGGSLKLSCAASGFTFSGYYMSWFRQTPEKRLELVAVINSNGGSTYYAVTVKGRFTISRDNAKNTLYLQMSSLKSEDTALYYCARHEGSQAWFAHWGQGTLVTVSA VL: DIVMTQSHKFMSTSVGDRVSITCKASQDVTTAVAWYQQKPGQSPKLLIYWASTRHTGVPDRFTGSGSGTDYTLTISSVQAEDLALYYCQQHHSTPLTFGAGTKLELK |  |  | 1.72 | 109000 | 1.68 | 39600 | 
xi67C9G11 hIgG1 (antibody, V domains shown, chimeric, hIgG1) VH: DVKLVESGGGLVKLGGSLKLSCAASGFTFSSYFMSWIRQTPEKRVDLVAVINSNGGSTYSPDTVKGRFTISRDNAKNTLYLQMTSLKSEDTALYYCARHFYSYDGAWFPYWGQGTLVTVSA VL: DIVMTQSHKFMSTLVGDRVSITCKASQDVSTSVAWYQQKPGQSPKLLIYWASTRHTGVPDRFTGSGSGTDFTLTISSVQAEDLALYYCQQHHSTPITFGVGTKLELK |  |  | 2.82 | 107000 | 4.67 | 41000 | 
xi25B11B9 hIgG1 (antibody, V domains shown, chimeric, hIgG1) VH: DVKLVESGGGLVRLGGSLKLSCAASGFTFSSHYMSWVRQTPKKRLELVATINSSGGNTYYPDTVKGRFTISRDNARNTLFLQMTSLKSEDTALYYCARQPINTVAYFDYWGQGTTLTVSS VL: DIVMTQSHEFMSTSVGARVSITCKASQDLTTAVAWYQQKPGQSPKLLIYWASTRHIGVPDRFTGSGSGADYTLTISSVQAEDLALYYCQQYHSTPLTFGAGTKLELK |  |  | 2.51 | 106000 | 9.06 | 42500 | 
63A11D5B4.p1.z6 hIgG1 (antibody, V domains shown, humanized hIgG1) VH: QVQLVQSGAEVKKPGASVKVSCKTSGYTFITYNMHWVRQAPGQGLEWIGAIYPGSGDTSYNQKFKGRVTMTADTSTSTVYMELSSLRSEDTAVYYCSISTIITTGAVDYWGQGTLVTVSS VL: DIQMTQSPSSLSTSVGDRVTITCKASQDVGTAVAWYQQKPGKSPKLLIYWTSTRHTGVPSRFSGSGSGTDFTLIISSLQPEDVATYYCQQYSRIPLTFGGGTKVEIK |  |  |  |  |  |  | EC50 [4]: 36.8 nM; Top (MFI) [4]: 34600 MFI
63A11D5B4.p1.z1 hIgG1 (antibody, V domains shown, humanized hIgG1) VH: QVQLVQSGAEVKKPGASVKVSCKASGYTFITYNMHWVRQAPGQGLEWMGAIYPGSGDTSYNQKFKGRVTMTRDTSTSTVYMELSSLRSEDTAVYYCASSTIITTGAVDYWGQGTLVTVSS VL: DIQMTQSPSSLSASVGDRVTITCKASQDVGTAVAWYQQKPGKVPKLLIYWTSTRHTGVPSRFSGSGSGTDFTLTISSLQPEDVATYYCQQYSRIPLTFGGGTKVEIK |  |  |  |  |  |  | EC50 [4]: 19.6 nM; Top (MFI) [4]: 28000 MFI
63A11D5B4.p1.z2 hIgG1 (antibody, V domains shown, humanized hIgG1) VH: QVQLVQSGAEVKKPGASVKVSCKASGYTFITYNMHWVRQAPGQGLEWMGAIYPGSGDTSYNQKFKGRVTMTRDTSTSTVYMELSSLRSEDTAVYYCASSTIITTGAVDYWGQGTLVTVSS VL: DIQMTQSPSSLSTSVGDRVTITCKASQDVGTAVAWYQQKPGKSPKLLIYWTSTRHTGVPSRFSGSGSGTDFTLIISSLQPEDVATYYCQQYSRIPLTFGGGTKVEIK |  |  |  |  |  |  | EC50 [4]: 20.6 nM; Top (MFI) [4]: 28700 MFI
xi62C10B3D2 hIgG1 (antibody, V domains shown, chimeric, hIgG1) VH: QVHQQQSGPELVKPGASVRISCKASGYTFTSYYIHWVKQRPGQGLEWIGCIYPGNLFTKYNEKFKDKATLTADTSSTTAYMHLSSLTSEDSAVYFCARFLNWNAWYFDVWGAGTTVSVSS VL: DVLMTQTPLSLPVSLGDQASISCRSSQSIEHSNGNTNLEWYLQKPGQSPRLLIYKVSNRFSGVPDRFSGSGSGTDFTLKITGVEAEDLGVYYCFQGSHFPWTFGGGTKLEIK |  |  | 378 | 128000 | 408 | 29500 | 
xi11F6H8 hIgG1 (antibody, V domains shown, chimeric, hIgG1) VH: EVQLQQSGPELVKPGASVKISCKTSGFTFTEYTMHWVKQSHGKSLEWIGGINPNNGISSYNQNFKGKATLTVDKSSSTAYMELRSLTSEDSTVYYCARCRYYDTSYYDMDYWGQGTSVTVSS VL: DIQMTQTTSSLSASLGDRVTISCRASQDIRNFLNWYQQKPDGTVKLLIYYTSRLHSGVPSRFSGSGSGTDYSLTISNLEEEDIATYFCQQSNTLPWTFGGGTKLEIK |  |  | 1.92 | 111000 | 4.9 | 41300 | 
xi95H11A1D8VH-1 hIgG1 (antibody, V domains shown, chimeric, hIgG1; the suffix VH-1 is not explained) VH: QVQLQQPGAELVKPGASVKMSCKTSGYTFTTNNMHWVKQTPGQGLEWIGAIYPGNGATAYNQKFKGKATLTADKSSSTAYMQLSSLTSEASAVYYCARGMYGHGAMDYWGQGTSVIVSS VL: DIVLTQSPATLSVTPGDSVSLSCRARQNIGNNLYWYQQKSNESPRLLIKYASQSISGIPSRFSGSGSGTDFTLTINSVETEDFGVYFCQQSFSWPLTFGAGTKLELK |  |  | 63.4 | 12700 |  |  | 
